Data published in the RNAGym collection of RNA variant scans (doi:10.1073/pnas.2313332121).

B1: TPR t1 (parent)
chain: GACCAAUCUGCCCUCAGAGCUCGAGAACAUCUUCGGAUGCAGAGGAGGCAGGCUUCGGUGGCGCGAUAGCGCCAACGUCCUCAACCUCCAAUGCAUCCCACCACAUGAUGAUGCCUGAAGAGCCUUGGUUUUUUG

Variants of: B1
Experiment: polymerase ribozyme fitness, log enrichment relative to wild type (log ratio); higher = more active; in vitro selection for triplet polymerase activity
How it was run: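 After PCR construction and transcription, each subunit's mutant library from a heterodimeric triplet polymerase ribozyme was annealed with a biotinylated primer, the partner subunit and triplets. Incubation was frozen, at −7 °C, and extended constructs were gel-excised, bound to streptavidin beads and amplified by RT-PCR, in one selection round done in triplicate. Fitness is the logarithm of a genotype's enrichment divided by that of the wild type, from inverse-variance-weighted replicate averages of Illumina-sequenced inputs and outputs. The base of the logarithm is 2, and genotypes needed ≥10 input reads and ≥1 read per output.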

Going from U7G U9A G120C to C8G C20U A68G G113C, the “polymerase ribozyme fitness (log ratio)” value falls from 1.99 to -5.52.

Compared with C8A U9G, U7C U14G G48U C70G is lower in “polymerase ribozyme fitness (log ratio)” value: -0.0103 for the first, -5.7 for the second.

Compared with U7G C13G G57A, U7G G45C G47A U59C is lower in “polymerase ribozyme fitness (log ratio)” value: -0.156 for the first, -1.08 for the second.

Going from U7C C11A C22A to C8A U30C G69U A118U G120A U129G, the “polymerase ribozyme fitness (log ratio)” value rises from -5.95 to -1.47.

Going from C8A C12G U14C G77C C101A to U7G C73A U92A, the “polymerase ribozyme fitness (log ratio)” value falls from -1.39 to -2.35.

Compared with U7G U9A A27U C72U U87A U126A, U7C A43U C72G A90G C124A U125G U133C is higher in “polymerase ribozyme fitness (log ratio)” value: -3.36 for the first, -0.0724 for the second.

Going from U7A C56U G120U to C8A G69A G120C, the “polymerase ribozyme fitness (log ratio)” value falls from 0.935 to -1.1.

Going from C8A A26U C94U C124G U125G G127U to C8A G117U A119U C123U, the “polymerase ribozyme fitness (log ratio)” value rises from -0.974 to -0.478.

First: C8A C85U
Second: C8A C123A C124U G127U
The “polymerase ribozyme fitness (log ratio)” value of the first is lower: -0.102 for the first, 0.694 for the second.

C8A C12G U54A and U7G C56A are within 0.2 log units of each other in “polymerase ribozyme fitness (log ratio)” value: 0.0252 for the first, 0.0403 for the second.

Compared with U7C A41U C123G U131A, U7C C11U C73U G93U is lower in “polymerase ribozyme fitness (log ratio)” value: 0.484 for the first, -1.53 for the second.

Compared with U7C C72A A83G, C8G C13A A16U is higher in “polymerase ribozyme fitness (log ratio)” value: -0.327 for the first, 0.292 for the second.

Compared with C8A A43C C70G, C8G C13G is higher in “polymerase ribozyme fitness (log ratio)” value: -6.43 for the first, 0.865 for the second.

First: C8G C13A
Second: C8A U59A
The “polymerase ribozyme fitness (log ratio)” value of the first is higher: 0.587 for the first, -0.964 for the second.

First: U7C C11G C62A U96G
Second: U7A C12A A90G
The “polymerase ribozyme fitness (log ratio)” value of the first is lower: -1.18 for the first, -0.303 for the second.

First: U7C G113A
Second: U7G C22G A24G G48U
The “polymerase ribozyme fitness (log ratio)” value of the first is higher: 0.595 for the first, -5.74 for the second.

First: U7G G69U
Second: C8A U30G C115U U130G
The “polymerase ribozyme fitness (log ratio)” value of the first is higher: 0.479 for the first, -5.92 for the second.

Compared with C8A C11G C13U C20A G36A U78C, U7C A24U G61U is lower in “polymerase ribozyme fitness (log ratio)” value: -3.05 for the first, -7.38 for the second.

Going from C8A C49A C64U C86U G93U C94U C123A to U7A C104G, the “polymerase ribozyme fitness (log ratio)” value falls from -0.145 to -6.47.

Compared with U7C A16G C70A C94U C104U U112A, C8A C11A C82A G93A is higher in “polymerase ribozyme fitness (log ratio)” value: -1.32 for the first, -0.542 for the second.

First: U7C A16C G52C G110A U130A
Second: U7G A29U G42A C53U C62U
The “polymerase ribozyme fitness (log ratio)” value of the first is lower: -5.74 for the first, -3.19 for the second.

Compared with U7A G10C A90U C101A, C8A C28A C72U C123U is higher in “polymerase ribozyme fitness (log ratio)” value: -4.34 for the first, -2.54 for the second.

Going from U7A C64A to U7G C12G G58A C72U, the “polymerase ribozyme fitness (log ratio)” value rises from -4.63 to 0.394.

First: C8A U67C
Second: C8A U112C
The “polymerase ribozyme fitness (log ratio)” value of the first is lower: -3.31 for the first, 1.3 for the second.

Going from C8G C12G U30C C53G C114U to C8A C40U C53A, the “polymerase ribozyme fitness (log ratio)” value rises from -4.29 to 0.276.

Compared with C8G A50U C56A C79G A100G A111U, C8G A108G is higher in “polymerase ribozyme fitness (log ratio)” value: -5.8 for the first, -0.714 for the second.

First: C8A C20U G113U A118U
Second: C8A G36U C82A
The “polymerase ribozyme fitness (log ratio)” value of the first is higher: -0.316 for the first, -0.55 for the second.

First: C8A C70U A91C U116A
Second: C8A C40A A43C U87G
The “polymerase ribozyme fitness (log ratio)” value of the first is lower: -2.96 for the first, -2.23 for the second.

First: U7G C104A C123G G128C
Second: C8G C15U A18C C53A U55A C56G
The “polymerase ribozyme fitness (log ratio)” value of the first is lower: -3.67 for the first, -1.96 for the second.

Compared with U7C C56A G71U A90C, C8A G45C is higher in “polymerase ribozyme fitness (log ratio)” value: -3.95 for the first, 0.366 for the second.

Going from U7C C11A G45C G58A to C8G A18U C98U, the “polymerase ribozyme fitness (log ratio)” value falls from -0.0271 to -2.18.

First: U7G U32A A46U G77A C104A A105U C123G
Second: C8G C12A C28G A29G G48U A68U C114A U125G
The “polymerase ribozyme fitness (log ratio)” value of the first is higher: -4.45 for the first, -6.52 for the second.

First: U7G A91U
Second: C8A G47U U78G U81G
The “polymerase ribozyme fitness (log ratio)” value of the first is higher: -1.77 for the first, -4.17 for the second.

Compared with C8A C70A, U7G G110C C124A is lower in “polymerase ribozyme fitness (log ratio)” value: -0.98 for the first, -4.31 for the second.

Compared with C8G C11U C85U U130C, U7A U9C is higher in “polymerase ribozyme fitness (log ratio)” value: -0.895 for the first, 0.526 for the second.

Going from C8A C11G C64A A103C A119U G120A to C8A A41U G61A C86A, the “polymerase ribozyme fitness (log ratio)” value rises from -6.83 to -1.24.

Going from C8A U133G to C8A G45C G58A C97G U106A, the “polymerase ribozyme fitness (log ratio)” value falls from 0.0303 to -3.12.

Going from C8G C22G to C8G C22A C53U C89A C114U G117A G135A, the “polymerase ribozyme fitness (log ratio)” value rises from -3.9 to -3.7.

Compared with C8A A84G, U7A G63C U81G is lower in “polymerase ribozyme fitness (log ratio)” value: 0.231 for the first, -4.09 for the second.

Compared with U7G A46U G93U, U7G C124A is higher in “polymerase ribozyme fitness (log ratio)” value: -2.2 for the first, 1.74 for the second.

First: C8A G47U C49U G110U
Second: U7A C123G
The “polymerase ribozyme fitness (log ratio)” value of the first is lower: -3.49 for the first, 2.34 for the second.

Compared with U7A G60U, C8A C13G G60C A90U U109G A119U is lower in “polymerase ribozyme fitness (log ratio)” value: 0.564 for the first, -6.32 for the second.
